In patent US20040054131A1 (CHIRON, published 2004):
Substitutions are numbered along the chain they refer to. Bridges are numbered along the chain shown (N, C = ends). Where no end group is shown, it is not given here.

B1: FGFR1c extracellular domain-IgG fusion protein (Fc fusion, human, UniProt P11362 22-377, looked up)
chain: RPSPTLPEQAQPWGAPVEVESFLVHPGDLLQLRCRLRDDVQSINWLRDGVQLAESNRTRITGEEVEVQDSVPADSGLYACVTSSPSGSDTTYFSVNVSDALPSSEDDDDDDDSSSEEKETDNTKPNRMPVAPYWTSPEKMEKKLHAVPAAKTVKFKCPSSGTPNPTLRWLKNGKEFKPDHRIGGYKVRYATWSIIMDSVVPSDKGNYTCIVENEYGSINHTYQLDVVERSPHRPILQAGLPANKTVALGSNVEFMCKVYSDPQPHIQWLKHIEVNGSKIGPDNLPYVQILKTAGVNTTDKEMEVLHLRNVSFEDAGEYTCLAGNSIGLSHHSAWLTVLEALEERPAVMTSPLYLEI
notes: range 1-377; also called FGFR-IgG; FGFR ECD; not shown: Fc region of human IgG1
B2: C19-jun fusion protein (designed binder)
chain: MAESGDDYCVLVFTDSAWTKICDWSHFRNGPGGGSGGGSGGGSGGGSGGGSRCGGRIARLEEKVKTLKAQNSELASTANMLREQVAQLKQKVMNHGGCGGSGGHHHHHH
notes: also called Clone 19-jun protein
B3: C19junΔhep (designed binder)
chain: B2 chain with R56Q, R59Q, K65Q, K68Q
notes: also called C19jun?hep; C19junahep

What was measured:
[1] = target: B1; test: deletion mutant analysis; method not stated
[2] = target: B1; test: BIAcore real-time kinetic analysis, immobilized FGFR1c ECD, no heparin; approximate apparent affinity
Method: C19 peptide with an intrapeptide disulfide bond was synthesized, purified by HPLC, and characterized by mass spectroscopy. C19junΔhep protein was prepared by changing human c-jun residues Arg276, Arg279, Lys285, and Lys288 in the leucine zipper domain to glutamines. […] The extracellular ligand-binding domain of human FGFR Ic (residues 1-377) and human erythropoietin receptor (residues 1-250) were fused to the Fe region of human IgGI, expressed in baculovirus and purified by protein A affinity chromatography. […] PDGF receptor Fc fusion protein was from R&D Systems.

[3] = target: T1, F12 phagemid (F12 clone peptide displayed on M13 p8) (bacteriophage M13); test: displacement of Europium-labeled FGFR-IgG by unlabeled FGFR-IgG from F12 phagemid captured on anti-M13 antibody (time-resolved fluorescence)
T1 construct: Assayed as whole phagemid particles captured by anti-M13 antibody; The frame A-X3-C-X10-C-X3-(GGS)2GG-p8 is inferred from the 18mer two-cysteine pattern of F12; not shown: M13 p8 coat protein, peptide fused to its N-terminus
Method: Nunc Maxisorp 96-well plates were coated with […] anti-M13 antibody in […] 50 mM Na₂CO₃ pH 9.6 and blocked using the conditions described in Example 2. Phagemid (˜10¹¹ cfu) were applied to wells in binding buffer for 1h and washed 6 times with PBS, 0.05% Tween 20, and 2 times with Delphia Wash Buffer (E&G Wallac). […] Wells were washed 8× in Delphia Wash Buffer, treated with 100 μL of Delphia Enhancer Solution and fluorescence measured. IC₅₀ values were determined from four-parameter fits to displacement plots.

[4] = target: FGF receptor (FGFR) on Swiss 3T3 cells; test: cell-based or functional assay

Binder	Kd [2]	other results
AESGDDYCVLVFTDSAWTKIC [C19 with truncation of the C-terminal 7 amino acids]	–	fold loss of affinity against untruncated C19 [1]: ~15 fold
AESGDDYCVLVFTDSAWTKICDWSHFRN (disulfide 8-21 (inferred), also called C19 peptide; C19 clone) [C19 synthetic peptide]	400 nM	–
B1	–	IC50 [3]: ~12 nM
B2	10 nM	EC50 of mitogenesis (BrdU incorporation) in Swiss 3T3 cells with 15 U/ml heparin [4]: 0.24 nM
B3	10 nM	–
